The values below come from patent US20210290727A1 (UNIVERSITY OF MARYLAND BALTIMORE, published 2021).

The target of one experiment is T1, FLAG-tagged TSC1 (UniProt Q92574 1-1164).
T1 construct: also called pRK7-FLAG-TSC1; not shown: FLAG tag
T1 sequence (looked up): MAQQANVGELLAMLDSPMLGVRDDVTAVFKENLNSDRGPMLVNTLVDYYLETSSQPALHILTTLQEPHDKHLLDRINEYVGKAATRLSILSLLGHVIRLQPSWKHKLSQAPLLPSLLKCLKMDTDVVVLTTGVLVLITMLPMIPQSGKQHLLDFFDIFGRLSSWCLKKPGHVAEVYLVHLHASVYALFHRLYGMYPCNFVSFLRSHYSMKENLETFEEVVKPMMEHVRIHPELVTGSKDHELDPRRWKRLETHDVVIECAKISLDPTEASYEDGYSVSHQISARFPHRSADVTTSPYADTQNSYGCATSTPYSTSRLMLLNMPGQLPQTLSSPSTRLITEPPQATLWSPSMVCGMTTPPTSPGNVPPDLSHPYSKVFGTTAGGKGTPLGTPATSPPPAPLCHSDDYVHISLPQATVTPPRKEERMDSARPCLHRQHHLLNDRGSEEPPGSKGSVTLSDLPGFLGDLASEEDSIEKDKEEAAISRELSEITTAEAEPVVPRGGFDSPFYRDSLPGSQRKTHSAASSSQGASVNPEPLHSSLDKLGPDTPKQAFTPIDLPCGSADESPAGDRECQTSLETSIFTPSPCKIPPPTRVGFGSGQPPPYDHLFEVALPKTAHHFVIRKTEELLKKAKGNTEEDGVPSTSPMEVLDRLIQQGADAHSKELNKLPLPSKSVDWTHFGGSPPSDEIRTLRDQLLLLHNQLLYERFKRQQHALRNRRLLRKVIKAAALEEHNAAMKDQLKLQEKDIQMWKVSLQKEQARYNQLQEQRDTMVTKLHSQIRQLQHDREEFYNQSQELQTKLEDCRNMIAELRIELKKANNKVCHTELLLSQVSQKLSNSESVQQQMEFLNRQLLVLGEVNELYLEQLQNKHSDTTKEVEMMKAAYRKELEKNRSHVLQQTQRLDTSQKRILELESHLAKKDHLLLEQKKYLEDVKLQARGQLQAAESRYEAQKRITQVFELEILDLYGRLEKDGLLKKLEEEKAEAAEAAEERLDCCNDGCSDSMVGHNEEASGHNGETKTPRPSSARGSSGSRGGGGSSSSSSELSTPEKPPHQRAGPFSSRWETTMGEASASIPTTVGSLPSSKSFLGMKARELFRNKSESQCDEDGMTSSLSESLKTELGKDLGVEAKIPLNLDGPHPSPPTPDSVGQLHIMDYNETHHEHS
Kind of experiment: NanoSPD (nanoTRAP) filopodia co-accumulation in COS-7 cells.

The next experiment has as its target T2, FLAG-tagged TSC2 (UniProt P49815 1-1807, limits assumed).
T2 construct: also called pRK7-FLAG-TSC2; not shown: FLAG tag
The description is as above.

T2 sequence (P49815 whole entry): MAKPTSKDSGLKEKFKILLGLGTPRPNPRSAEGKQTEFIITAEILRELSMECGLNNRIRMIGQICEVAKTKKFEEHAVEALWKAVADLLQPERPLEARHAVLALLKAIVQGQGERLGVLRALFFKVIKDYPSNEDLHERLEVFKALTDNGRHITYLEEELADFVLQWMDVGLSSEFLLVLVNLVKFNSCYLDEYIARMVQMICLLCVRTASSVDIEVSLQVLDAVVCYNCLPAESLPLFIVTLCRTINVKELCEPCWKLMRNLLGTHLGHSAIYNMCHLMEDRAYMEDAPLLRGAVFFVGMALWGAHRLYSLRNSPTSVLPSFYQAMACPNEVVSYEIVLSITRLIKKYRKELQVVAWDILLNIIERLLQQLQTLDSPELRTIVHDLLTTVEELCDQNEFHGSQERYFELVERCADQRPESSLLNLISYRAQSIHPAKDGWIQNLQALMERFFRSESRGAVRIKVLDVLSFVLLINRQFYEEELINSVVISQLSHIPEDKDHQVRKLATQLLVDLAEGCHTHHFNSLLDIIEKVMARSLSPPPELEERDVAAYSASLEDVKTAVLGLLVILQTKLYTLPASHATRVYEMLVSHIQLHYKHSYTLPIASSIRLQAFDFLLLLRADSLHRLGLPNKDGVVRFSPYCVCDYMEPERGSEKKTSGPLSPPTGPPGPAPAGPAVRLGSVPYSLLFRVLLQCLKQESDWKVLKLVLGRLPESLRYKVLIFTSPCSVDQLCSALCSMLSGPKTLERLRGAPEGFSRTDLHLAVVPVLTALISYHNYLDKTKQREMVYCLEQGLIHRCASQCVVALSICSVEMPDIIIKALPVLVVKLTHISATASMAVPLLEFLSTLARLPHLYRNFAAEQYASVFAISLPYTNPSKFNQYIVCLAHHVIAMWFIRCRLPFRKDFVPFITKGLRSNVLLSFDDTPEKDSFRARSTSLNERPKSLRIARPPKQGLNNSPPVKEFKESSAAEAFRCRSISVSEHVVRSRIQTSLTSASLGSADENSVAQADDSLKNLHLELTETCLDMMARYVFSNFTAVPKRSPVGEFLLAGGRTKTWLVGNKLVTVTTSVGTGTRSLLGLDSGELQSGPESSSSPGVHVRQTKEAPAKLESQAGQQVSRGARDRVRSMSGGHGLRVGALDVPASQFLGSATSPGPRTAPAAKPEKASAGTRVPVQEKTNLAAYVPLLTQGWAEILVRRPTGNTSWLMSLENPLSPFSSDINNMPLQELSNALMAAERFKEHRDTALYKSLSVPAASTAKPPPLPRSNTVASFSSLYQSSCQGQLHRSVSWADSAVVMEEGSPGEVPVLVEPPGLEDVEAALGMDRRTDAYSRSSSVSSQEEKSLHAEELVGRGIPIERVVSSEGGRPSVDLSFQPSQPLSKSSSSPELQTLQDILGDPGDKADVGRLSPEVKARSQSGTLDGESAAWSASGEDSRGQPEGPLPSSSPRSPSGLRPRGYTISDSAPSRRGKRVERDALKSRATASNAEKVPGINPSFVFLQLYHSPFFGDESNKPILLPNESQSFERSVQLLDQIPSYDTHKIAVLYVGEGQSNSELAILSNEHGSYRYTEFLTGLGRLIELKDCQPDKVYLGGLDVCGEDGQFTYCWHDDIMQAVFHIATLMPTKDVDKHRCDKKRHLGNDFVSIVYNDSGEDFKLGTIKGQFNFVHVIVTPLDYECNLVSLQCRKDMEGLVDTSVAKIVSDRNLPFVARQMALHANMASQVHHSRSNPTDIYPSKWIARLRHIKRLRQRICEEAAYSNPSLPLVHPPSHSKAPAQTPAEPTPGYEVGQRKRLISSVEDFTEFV
Procedure for FLAG-tagged TSC1: (§1) 60-70% confluent COS-7 cells or RPE-J cells were fixed with 4% PFA for 15 min at RT and permeabilized with 0.2% Triton X-100 in PBS for 15 min at room temperature, followed by blocking with 10% normal goat serum (NGS) in PBS for at least 30 min at RT. Primary antibodies were diluted in 3% NGS-PBS and incubated overnight at 4° C., followed by the incubations with the indicated goat secondary antibodies. […] A Zeiss 710 laser scanning confocal microscopy system was used for image acquisition, with step size of 0.5 μm.
(§2) 60-70% confluent Cos7 cells in 6-well plates for nanoTRAP were transfected with Lipofectamine 2000 (3:1 ratio) with 1 μg plasmid construct each. For nanoTRAP assay, cells were split 1:10 ratio in glass coverslips to allow for filopodia formation. 24 hrs later, cells were fixed and processed as above.
Procedure for FLAG-tagged TSC2: as §1, §2

B1: CIB2-eGFP (other)
chain: MGNKQTIFTEEQLDNYQDCTFFNKKDILKLHSRFYELAPNLVPMDYRKSPIVHVPMSLIIQMPELRENPFKERIVAAFSEDGEGNLTFNDFVDMFSVLCESAPRELKANYAFKIYDFNTDNFICKEDLELTLARLTKSELDEEEVVLVCDKVIEEADLDGDGKLGFADFEDMIAKAPDFLSTFHIRI
notes: Expressed in COS-7 cells as bait of the NanoSPD (nanoTRAP) assay; also called hCIB2-eGFP; GFP-hCIB2; not shown: eGFP tag
On to B1, for which the binding result with FLAG-tagged TSC1 and with FLAG-tagged TSC2 was “no binding” in each case.
